Data from paper PMC5658023 (Current biology : CB, 2017).
Where two headings read alike, the source gives them in different places.

T1: GST-Chs4-SLR (220-610) (S. cerevisiae, UniProt P34226 220-610)
T1 sequence (looked up): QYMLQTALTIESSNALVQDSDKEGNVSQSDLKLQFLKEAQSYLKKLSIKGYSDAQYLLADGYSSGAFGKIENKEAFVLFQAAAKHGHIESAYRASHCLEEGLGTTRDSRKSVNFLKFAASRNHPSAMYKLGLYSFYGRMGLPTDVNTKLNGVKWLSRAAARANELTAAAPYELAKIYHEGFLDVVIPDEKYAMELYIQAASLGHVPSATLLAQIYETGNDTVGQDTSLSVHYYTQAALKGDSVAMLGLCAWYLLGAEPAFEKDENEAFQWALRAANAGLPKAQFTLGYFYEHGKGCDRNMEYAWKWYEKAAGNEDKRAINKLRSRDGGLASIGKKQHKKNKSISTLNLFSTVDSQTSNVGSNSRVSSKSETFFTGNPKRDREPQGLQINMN

T2: His6-Chs3-MID (477-1028) (S. cerevisiae, UniProt P29465 477-1028)
T2 sequence (looked up): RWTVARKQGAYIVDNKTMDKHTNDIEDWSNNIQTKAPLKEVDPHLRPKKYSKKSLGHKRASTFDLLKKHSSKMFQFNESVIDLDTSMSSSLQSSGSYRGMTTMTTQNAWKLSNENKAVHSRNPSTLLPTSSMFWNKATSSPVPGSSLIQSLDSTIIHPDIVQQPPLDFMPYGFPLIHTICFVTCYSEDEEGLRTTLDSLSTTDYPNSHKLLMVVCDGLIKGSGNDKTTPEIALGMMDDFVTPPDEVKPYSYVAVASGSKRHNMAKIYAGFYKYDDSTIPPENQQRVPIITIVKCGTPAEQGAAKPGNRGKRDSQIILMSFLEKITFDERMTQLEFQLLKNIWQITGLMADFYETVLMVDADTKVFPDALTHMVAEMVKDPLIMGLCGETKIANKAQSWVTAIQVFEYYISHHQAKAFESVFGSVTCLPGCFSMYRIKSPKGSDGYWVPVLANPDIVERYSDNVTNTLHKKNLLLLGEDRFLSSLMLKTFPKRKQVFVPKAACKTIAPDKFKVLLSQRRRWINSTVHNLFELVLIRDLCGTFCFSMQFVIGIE

B1: His6-Hof1-N-term (domain or fragment, S. cerevisiae, UniProt Q05080 1-340, looked up)
chain: MSYSYEACFWDPNDNGVNILLGHISQGIRSCDSMILFFKQRSELEKDYARRLGAITGKLDKDIGTNMDYGKLNETFNVVLSVEKARAQSHSKQSEILFRQIYTDTKAFAANLQARYTTLSGKIERLRMDKFNKKKGCEVLQKKLQDAQIRFRDLQLNENNMIGAKRVEHNKRELLKWESNSQEYKVQLDVLKQEYKASQKFWIHEWAQLSCELQEMENARISFLQSKLQQFATSSMETYILEQTKMDMLTNHLNSFTAADEISTFSKENGTGRLKHKTSKGDMNSSANWAQMSSISTTSKKTESYMDNIRKLSSQLKETENKRKLASIDKYEKPLPSPEV
B2: MBP-Hof1-N-term (1-340) (domain or fragment, S. cerevisiae, UniProt Q05080 1-340, looked up)
chain: B1 chain
B3: MBP-Chs4-SLR (220-610) (domain or fragment, S. cerevisiae, UniProt P34226 220-610, looked up)
chain: T1 sequence (looked up)
B4: MBP-Hof1-F-BAR (1-275) (domain or fragment, S. cerevisiae, UniProt Q05080 1-275, looked up)
chain: MSYSYEACFWDPNDNGVNILLGHISQGIRSCDSMILFFKQRSELEKDYARRLGAITGKLDKDIGTNMDYGKLNETFNVVLSVEKARAQSHSKQSEILFRQIYTDTKAFAANLQARYTTLSGKIERLRMDKFNKKKGCEVLQKKLQDAQIRFRDLQLNENNMIGAKRVEHNKRELLKWESNSQEYKVQLDVLKQEYKASQKFWIHEWAQLSCELQEMENARISFLQSKLQQFATSSMETYILEQTKMDMLTNHLNSFTAADEISTFSKENGTGRLK

What was measured:
Test in all cases: pull-down
[1] = biological target: T1, GST-Chs4-SLR (220-610)
[2] = biological target: B3
[3] = biological target: T1, GST-Chs4-SLR (220-610); remark: listed apart in the source
[4] = biological target: T2, His6-Chs3-MID (477-1028)

B1: binds [1]; binds [2].

B2: binds [3].

B3: binds [4].

B4: binds [3].
